Assay [1] addresses type IV pili of N. meningitidis 8013, SB sequence type pilin PilE with GATDH on S63 and G3P on S69 (Neisseria meningitidis).
Assay [2] shares this target. The experiment in a line: cryo-EM structure; purified pili 10 µg/ml with nanobody 50 µg/ml, vitrified at 4 °C; helical refinement.
Assay [3] concerns the target T1, type IV pili of the N. meningitidis 8013 pglAON* strain (SB pilin with the GATDH-Gal double sugar on S63) (Neisseria meningitidis 8013 (serogroup …, strain, GATDH with a second sugar (galactose in position 3) on serine 63)).
T1 construct: numbers count on: the mature protein; also called GATDH-GLA; GATDH-GAL variant
T1 chain: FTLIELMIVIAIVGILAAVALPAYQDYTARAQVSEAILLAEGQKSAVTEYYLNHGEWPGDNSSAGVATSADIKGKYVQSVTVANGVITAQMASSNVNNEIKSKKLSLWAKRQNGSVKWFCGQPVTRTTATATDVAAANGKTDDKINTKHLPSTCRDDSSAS
The experiment in a line: immunostaining of cells or tissue; as a1 but nanobody 5 µg/ml and anti-His tag 17.5 µg/ml (experiments with C24_S112-114G, Fig. 7f and g). The settings on record: one partner purified.

B1: F10 nanobody (VHH)
VHH: QLQLVESGGGLVQPGGSLRLSCAASGFTLDQYAIGWFRQAPGKEREGVSCISSRGGATNYAHSVKGRFTISRDNAKNTVYLQMNSLKPEDTAVYYCAAGVYTIVTGTGPEDGMDYWGKGTLVTVSS
One may read the stoichiometry N as a count of units in the complex or per binding partner. On to B1, for which, in assay [1], the inhibition of type IV pili-dependent bacterial auto-aggregation (blocks the pilus-pilus interaction, m1 with m1); indicated amounts of nanobody, Fig. 3c is 5 µg/mL. The molecule further yielded a stoichiometry N in assay [2] of 1.

B2: C24 nanobody (VHH)
VHH: QLQLVESGGGLVQPGGSLRLSCASSGFRSDYYAIVWFRQAPGKEREGVSCISTSGKTTIYADSVKGRFTISRDNAKNTVYLQMNSLKPEDTAVYYCAADFRGSRLSDVCSYSSMDYWGKGTLATVSS
B2 returned an inhibition of type IV pili-dependent bacterial auto-aggregation (blocks the pilus-pilus interaction, m1 with m1); indicated amounts of nanobody, Fig. 3c in assay [1] of 5 µg/mL. The same molecule had a stoichiometry N in assay [2] of 1.

B3: C24_S112-114G nanobody (VHH)
VHH: QLQLVESGGGLVQPGGSLRLSCASSGFRSDYYAIVWFRQAPGKEREGVSCISTSGKTTIYADSVKGRFTISRDNAKNTVYLQMNSLKPEDTAVYYCAADFRGSRLSDVCGYGSMDYWGKGTLATVSS
notes: as the chain of m8 (C24) with the two stated changes; also called C24 S112G S114G double mutant; source: E. coli BL21 (DE3)/pLysS (plasmid pET26b-C24 mutated), purified; not shown: His tag, C-terminal, kept
For the molecule B3, the binding result in assay [3] is “binds”.
